Experimental data taken from patent US20170306033A1 (Amgen, published 2017).
Substitutions are numbered along the chain they refer to.

T1: human PAC1 receptor (human, UniProt P41586 21-468)
T1 sequence: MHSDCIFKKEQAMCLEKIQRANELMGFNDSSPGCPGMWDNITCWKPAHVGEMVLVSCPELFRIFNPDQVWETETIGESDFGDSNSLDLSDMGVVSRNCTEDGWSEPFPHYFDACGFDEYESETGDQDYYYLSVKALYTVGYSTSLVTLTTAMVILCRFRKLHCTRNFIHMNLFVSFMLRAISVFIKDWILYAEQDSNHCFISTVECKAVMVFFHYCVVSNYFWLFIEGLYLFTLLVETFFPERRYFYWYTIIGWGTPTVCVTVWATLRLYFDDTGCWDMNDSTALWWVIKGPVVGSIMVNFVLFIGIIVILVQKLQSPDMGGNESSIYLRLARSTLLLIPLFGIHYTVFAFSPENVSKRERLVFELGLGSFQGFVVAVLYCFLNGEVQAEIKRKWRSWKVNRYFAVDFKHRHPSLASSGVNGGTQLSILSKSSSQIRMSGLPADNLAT

B1: iPS:327732 (bispecific antibody, human IgG1, kappa, lambda, N297G)
light 1: not shown
heavy 1: not shown
light 2: QSVLTQPPSVSAAPGQKVTISCSGSSSNIGNNYVSWYQQLPGTAPKLLIYDNNKRPSGIPDRFSGSKSGTSATLGITGLQTGDEADYYCGTWDSRLSAVVFGGGTKLTVLGQPKANPTVTLFPPSSEELQANKATLVCLISDFYPGAVTVAWKADGSPVKAGVETTKPSKQSNNKYAAKSYLSLTPEQWKSHRSYSCQVTHEGSTVEKTVAPTECS
heavy 2: QVQLVESGGGVVQPGRSLRLSCAASGFTFSSFGMHWVRQAPGKGLEWVAVISFDGSIKYSVDSVKGRFTISRDNSKNTLFLQMNSLRAEDTAVYYCARDRLNYYESSGYYHYKYYGMAVWGQGTTVTVSSASTKGPSVFPLAPSSKSTSGGTAALGCLVKDYFPEPVTVSWNSGALTSGVHTFPAVLQSSGLYSLESVVTVPSSSLGTQTYICNVNHKPSNTKVDKKVEPKSCDKTHTCPPCPAPELLGGPSVFLFPPKPKDTLMISRTPEVTCVVVDVSHEDPEVKFNWYVDGVEVHNAKTKPCEEQYGSTYRCVSVLTVLHQDWLNGKEYKCKVSNKALPAPIEKTISKAKGQPREPQVYTLPPSRKEMTKNQVSLTCLVKGFYPSDIAVEWESNGQPENNYKTTPPVLKSDGSFFLYSKLTVDKSRWQQGNVFSCSVMHEALHNHYTQKSLSLSPGK
B2: iPS:327736 (bispecific antibody, human IgG1, kappa, lambda, N297G)
light 1: not shown
heavy 1: not shown
light 2: B1 light 2 with G103K
heavy 2: B1 heavy 2 with G44E
B3: iPS:327724 (bispecific antibody, human IgG1, kappa, lambda, N297G)
light 1: not shown
heavy 1: not shown
light 2: B1 light 2 with G75A, G103K
heavy 2: B1 heavy 2 with G44E, E105D
B4: iPS:327727 (bispecific antibody, human IgG1, kappa, lambda, N297G)
light 1: not shown
heavy 1: not shown
light 2: B1 light 2 with G75A
heavy 2: B1 heavy 2 with E105D, E370K
B5: iPS:327734 (bispecific antibody, human IgG1, kappa, lambda, N297G)
light 1: EIVLTQSPATLSLSPGERATLSCRASQSVGRSLHWYQQKPGQAPRLLIKYASQSLSGIPARFSGSGSGTDFTLTISSLEPEDFAVYYCHQSSRLPFTFGPGTKVDIKRTVAAPSVFIFPPSDEQLKSGTASVVCLLNNFYPREAKVQWKVDNALQSGNSQESVTEQDSKDSTYSLESTLTLSKADYEKHKVYACEVTHQGLSSPVTKSFNRGEC
heavy 1: not shown
light 2: B1 light 2
heavy 2: B1 heavy 2
B6: iPS:327737 (bispecific antibody, human IgG1, kappa, lambda, N297G)
light 1: DIQLTQSPSFLSASVGDRVTITCRASQSIGRSLHWYQQKPGKAPKLLIKYASQSLSGVPSRFSGSGSGTEFTLTISSLQPEDFATYYCHQSSRLPFTFGEGTKVDIKRTVAAPSVFIFPPSDEQLKSGTASVVCLLNNFYPREAKVQWKVDNALQSGNSQESVTEQDSKDSTYSLESTLTLSKADYEKHKVYACEVTHQGLSSPVTKSFNRGEC
heavy 1: not shown
light 2: B1 light 2 with G103K
heavy 2: B1 heavy 2 with G44E
B7: iPS:327725 (bispecific antibody, human IgG1, kappa, lambda, N297G)
light 1: B6 light 1
heavy 1: not shown
light 2: B1 light 2 with G75A, G103K
heavy 2: B1 heavy 2 with G44E, E105D
B8: iPS:327735 (bispecific antibody, human IgG1, kappa, lambda, N297G)
light 1: DIQMTQSPSSLSASVGDRITITCRASQSISRYLNWYQQKPGKAPKLLIYAASSLQSGIPSRFSGSGSGTDFTLTINSLQPEDFATYFCQQSYSPPFTFGEGTKVDIKRTVAAPSVFIFPPSDEQLKSGTASVVCLLNNFYPREAKVQWKVDNALQSGNSQESVTEQDSKDSTYSLESTLTLSKADYEKHKVYACEVTHQGLSSPVTKSFNRGEC
heavy 1: not shown
light 2: B1 light 2 with G103K
heavy 2: B1 heavy 2 with G44E
B9: iPS:327726 (bispecific antibody, human IgG1, kappa, lambda, N297G)
light 1: B5 light 1 with P100E
heavy 1: not shown
light 2: B1 light 2 with G75A, G103K
heavy 2: B1 heavy 2 with G44E, E105D
B10: iPS:327722 (bispecific antibody, human IgG1, kappa, lambda, N297G)
light 1: B8 light 1
heavy 1: not shown
light 2: B1 light 2 with G75A, G103K
heavy 2: B1 heavy 2 with G44E, E105D
B11: iPS:327733 (bispecific antibody, human IgG1, kappa, lambda, N297G)
light 1: B6 light 1 with E100P
heavy 1: not shown
light 2: B1 light 2
heavy 2: B1 heavy 2
B12: iPS:326663 (bispecific antibody, human IgG2, kappa)
light 1: B6 light 1 with E100P
heavy 1: QVQLVESGAEVVKPGASVKVSCKASGFTFSRFAMHWVRQAPGQGLEWMGVISYDGGNKYYAESVKGRVTMTRDTSTSTLYMELSSLRSEDTAVYYCARGYDVLTGYPDYWGQGTLVTVSSASTKGPSVFPLAPCSRSTSESTAALGCLVKDYFPEPVTVSWNSGALTSGVHTFPAVLQSSGLYSLKSVVTVPSSNFGTQTYTCNVDHKPSNTKVDKTVERKCCVECPPCPAPPVAGPSVFLFPPKPKDTLMISRTPEVTCVVVDVSHEDPEVQFNWYVDGVEVHNAKTKPREEQFNSTFRVVSVLTVVHQDWLNGKEYKCKVSNKGLPAPIEKTISKTKGQPREPQVYTLPPSREEMTKNQVSLTCLVDGFYPSDIAVEWESNGQPENNYDTTPPMLDSDGSFFLYSDLTVDKSRWQQGNVFSCSVMHEALHNHYTQKSLSLSPGK
light 2: EIVLTQSPGTLSLSPGERATLSCRASQSVSSGYLTWYQQKPGQAPRLLIYGASSRATGIPDRFSGSGSGTDFTLTISRLEPEDFAVYYCQQYGNSLSRFGQGTKLEIKRTVAAPSVFIFPPSDEQLKSGTASVVCLLNNFYPREAKVQWKVDNALQSGNSQESVTEQDSKDSTYSLKSTLTLSKADYEKHKVYACEVTHQGLSSPVTKSFNRGEC
heavy 2: QVQLVESGGGVVQPGRSLRLSCAASGFTFSSYGMHWVRQAPGKGLEWVAVIWYDGSNKYYADSVKGRFIISRDKSKNTLYLQMNSLRAEDTAVYYCARAGGIAAAGLYYYYGMDVWGQGTTVTVSSASTKGPSVFPLAPCSRSTSESTAALGCLVKDYFPEPVTVSWNSGALTSGVHTFPAVLQSSGLYSLESVVTVPSSNFGTQTYTCNVDHKPSNTKVDKTVERKCCVECPPCPAPPVAGPSVFLFPPKPKDTLMISRTPEVTCVVVDVSHEDPEVQFNWYVDGVEVHNAKTKPREEQFNSTFRVVSVLTVVHQDWLNGKEYKCKVSNKGLPAPIEKTISKTKGQPREPQVYTLPPSRKKMTKNQVSLTCLVKGFYPSDIAVEWESNGQPENNYKTTPPMLKSDGSFFLYSKLTVDKSRWQQGNVFSCSVMHEALHNHYTQKSLSLSPGK

target: human CGRP receptor (human, UniProt Q16602 23-461; O60894 27-148); assay: cell-based or functional assay
Sequence (Q16602 23-461 limits assumed, chain 1 of 2): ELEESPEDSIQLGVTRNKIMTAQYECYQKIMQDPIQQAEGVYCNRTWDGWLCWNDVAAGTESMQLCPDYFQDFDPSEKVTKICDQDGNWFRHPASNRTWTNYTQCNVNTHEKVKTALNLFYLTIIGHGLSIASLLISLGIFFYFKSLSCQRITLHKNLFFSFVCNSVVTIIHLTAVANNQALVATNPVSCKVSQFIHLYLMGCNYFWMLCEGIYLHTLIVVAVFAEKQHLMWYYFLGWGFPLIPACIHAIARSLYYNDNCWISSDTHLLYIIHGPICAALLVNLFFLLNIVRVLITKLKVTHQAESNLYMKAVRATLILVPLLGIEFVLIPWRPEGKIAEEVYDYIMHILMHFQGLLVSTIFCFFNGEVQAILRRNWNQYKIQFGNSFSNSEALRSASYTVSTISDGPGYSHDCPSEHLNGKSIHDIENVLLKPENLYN
Sequence (O60894 27-148 limits assumed, chain 2 of 2): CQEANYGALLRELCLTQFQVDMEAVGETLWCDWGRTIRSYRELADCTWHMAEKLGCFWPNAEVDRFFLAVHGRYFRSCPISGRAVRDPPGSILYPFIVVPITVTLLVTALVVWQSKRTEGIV

Binder	% inhibition of human CGRPR [%]
B1	69
B2	88
B3	80
B4	93
B5	82
B6	82
B7	86
B8	81
B9	91
B10	82
B11	84
B12	64

target: T1, human PAC1 receptor; assay: cell-based or functional assay

Binder	% inhibition of human PAC1 [%]
B1	56
B2	20
B3	33
B4	93
B5	99
B6	54
B7	39
B8	68
B9	77
B10	38
B11	66
B12	62
